Source: the Human Domainome abundance scans (Beltran et al. 2025)

B1: Friend leukemia integration 1 transcription factor, residues 116 to 197; numbered along this chain, Q01543 (parent)
chain: NMTTNERRVIVPADPTLWTQEHVRQWLEWAIKEYSLMEIDTSFFQNMDGKELCKMNKEDFLRATTLYNTEVLLSHLSYLRES

Variants of: B1
Test: abundance fitness (aPCA) (normalised: wild type 0, dead -1); higher = more abundant; growth selection in yeast, the domain comes from the species named
Conditions: Homo sapiens

Abundance fitness of substitutions, site by site:
K57: N -0.071, V -0.013, H -0.52, L -0.213, Q 0.043, T -0.086, G -0.433, R -0.052, M 0.008, D -0.312, F -0.451, A -0.268, E -0.135, Y -0.145, C -0.212, W -0.124, S -0.319
C53: N -0.197, E -0.409, H -0.324, Y -0.377, S -0.213, A -0.222, L 0.153, T -0.048, W -0.463, F 0.031, Q -0.099, V -0.017, P -0.905, R -0.72, G -0.142, M -0.134, K -0.553
E51: Q 0.03, L -0.135, R -0.084, C -0.219, M -0.1, P -0.766, G -0.058, Y -0.679, F -0.243, K -0.01, T 0.034, W -0.477, V -0.127, H 0.068, D -0.332, I -0.259
D59: A -0.035, C -0.046
D48: M -0.464, Q -0.205, K -0.227, W -0.82, S -0.013, R -0.305, P -0.295, V 0.031, N -0.201, Y -0.358, T -0.04
K50: N 0.068, D -0.093, Y 0.249, T 0.212, P 0.013, G -0.059, S -0.032, M -0.087, I -0.113, V -0.159, F -0.064, L -0.12, H 0.031, W -0.239, C -0.281, Q 0.013, E 0.058
N56: G 0.049, K 0.125, M -0.002, V -0.054, I -0.247, S -0.043, P -0.155, F -0.515, D -0.033, A -0.091, E 0.178, Y -0.54, H 0.12, Q -0.043, C -0.157, W -0.221, R -0.226, L -0.129
L52: R -1.03, M -0.277, W -0.943, F -0.072, T -0.928, S -0.991, C -0.692, G -0.915, A -0.602, P -0.627, I -0.608, V -0.192, E -0.976
E58: N 0.048, L -0.117, V -0.17, F -0.228, Y 0.015, R -0.032, P 0.01, K -0.162, T -0.053, C -0.11, A 0.119, W -0.153, G 0.028, M -0.19
G49: M -0.965, W -0.777, K -0.994, S -0.943, R -0.889, L -0.579, T -0.919, V -0.755, A -1.01, Q -0.977, I -0.506
M55: C 0.007, S -0.424, G -0.75, L 0.011, T -0.204, Y -0.273, P -0.784, R -0.444, Q -0.158, K 0.021, W -0.04, A -0.119, E -0.805, N -0.752, V -0.331, I -0.381
K54: M 0.021, H -0.494, S -0.01, Q -0.057, N 0.02, D 0.098, T -0.204, V -0.14, Y -0.359, E 0.1, L -0.017, G -0.015, W -0.396, P -0.687, R -0.063
